Data: patent US20250276081A1, “Mucin-Active Proteases and Methods of Use” (priority 2022, published 2025)

What was measured:
[1] = target: T1, cell surface MUC1 on HeLa cells (Homo sapiens, UniProt P15941); assay: In cellulo MUC1 cleavage activity assay; format: cell-based
T1 construct: subjected to flow cytometry for cell surface MUC1; endogenous in cells; host or cells: HeLa
Procedure: Combinations of domain deletions and single point mutations yielded a total of eleven mutants for characterization, with expression yields ranging from 20-100 mg/L (Methods and FIG. 15B). In vitro activity against recombinant mucin substrates was quantified by densitometry following SDS-PAGE (FIG. 2b-c and FIG. 15C). […] To determine effective dissociation constants (Kd) of the mutants, cells were treated with the same concentrations of enzymes for 30 mins at 4° C. in the presence of the metal chelator and metalloprotease inhibitor EDTA, to prevent enzyme activity. In the latter case, binding was quantified via interaction of an anti-His tag antibody with the His-tagged mutants (FIG. 2d,g-h and FIG. 15f-g).
In cellulo MUC1 cleavage activity assay. Hela cells resuspended at 4.5-5.0×10^5 cells in 150 μL of complete media were allocated per well to a 96-well ultra-low attachment round bottom plate (Corning). 50 μL of the different StcE mutants in PBS were added to the wells, and the plate was incubated at 37° C. for 1 h. […] For data analysis, the Alexa Fluor 647 mean fluorescence intensity of unstained and PBS-treated samples were used to define 0% and 100% cell surface MUC1, respectively, and each sample was normalized to percent MUC1 within each replicate. […]

[2] = In vivo biodistribution of IRdye 800CW-labeled StcE; settings: 0.25 mg/kg I.P.
[3] = In vivo toxicity of StcE (maximum tolerated dose, necropsy); parameters: species or system mouse
Procedure: (§1) In vivo toxicity studies. 10-week-old C57BL/6 mice (bred in-house) were injected with PBS or StcE (0.15 mg/kg or 15 mg/kg) via intravenous injection. 9-week-old female BALB/cJ mice (Jackson Labs) were injected with PBS or 10 mg/kg αHER2-eStcE via intraperitoneal injection. Mice were submitted to the Animal Diagnostic Lab at Stanford University for necropsy and complete blood count (CBC) analyses 3 h post injection.

[4] = Complete blood count (CBC) after StcE injection; format: in vivo, mouse; settings: 3 h, C57BL/6, n=1
Procedure: as §1

T1 sequence (P15941 24-1255): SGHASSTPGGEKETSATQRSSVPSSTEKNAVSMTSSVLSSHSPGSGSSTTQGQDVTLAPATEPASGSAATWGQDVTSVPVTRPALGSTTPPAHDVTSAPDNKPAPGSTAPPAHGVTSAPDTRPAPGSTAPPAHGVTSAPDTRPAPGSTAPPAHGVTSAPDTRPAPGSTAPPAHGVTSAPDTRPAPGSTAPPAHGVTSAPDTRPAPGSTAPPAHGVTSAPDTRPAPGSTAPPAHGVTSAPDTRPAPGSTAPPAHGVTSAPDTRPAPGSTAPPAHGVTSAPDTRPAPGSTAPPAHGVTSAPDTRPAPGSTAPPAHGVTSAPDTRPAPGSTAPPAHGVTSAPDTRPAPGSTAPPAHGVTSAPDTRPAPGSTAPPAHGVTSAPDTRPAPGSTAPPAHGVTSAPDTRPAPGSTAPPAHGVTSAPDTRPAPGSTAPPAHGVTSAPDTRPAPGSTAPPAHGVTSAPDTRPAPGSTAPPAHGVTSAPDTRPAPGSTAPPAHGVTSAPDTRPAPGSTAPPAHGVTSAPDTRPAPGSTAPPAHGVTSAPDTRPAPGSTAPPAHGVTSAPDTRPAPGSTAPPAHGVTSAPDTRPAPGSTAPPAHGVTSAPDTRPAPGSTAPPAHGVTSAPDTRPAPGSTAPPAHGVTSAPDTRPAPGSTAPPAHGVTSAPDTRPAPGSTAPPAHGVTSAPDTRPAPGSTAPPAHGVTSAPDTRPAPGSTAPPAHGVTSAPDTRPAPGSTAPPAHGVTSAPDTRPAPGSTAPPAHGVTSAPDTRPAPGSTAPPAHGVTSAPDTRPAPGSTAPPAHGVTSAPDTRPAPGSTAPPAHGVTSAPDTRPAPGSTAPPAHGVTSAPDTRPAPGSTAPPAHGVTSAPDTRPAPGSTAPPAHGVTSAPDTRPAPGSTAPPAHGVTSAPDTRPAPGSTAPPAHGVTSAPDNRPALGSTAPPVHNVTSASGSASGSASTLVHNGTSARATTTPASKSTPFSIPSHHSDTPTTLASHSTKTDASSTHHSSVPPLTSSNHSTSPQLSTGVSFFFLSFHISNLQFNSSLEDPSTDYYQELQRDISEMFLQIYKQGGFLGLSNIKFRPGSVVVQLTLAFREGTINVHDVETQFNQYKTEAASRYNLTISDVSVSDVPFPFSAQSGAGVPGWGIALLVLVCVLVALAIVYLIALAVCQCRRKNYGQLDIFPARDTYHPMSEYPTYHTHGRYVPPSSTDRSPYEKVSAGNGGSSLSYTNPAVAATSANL

StcE: secreted protease of C1 esterase inhibitor, zinc metalloprotease pan mucinase from E. coli O157:H7; SEQ ID NO:1
Concentration at which the enzyme is active [1]: single digit nanomolar | Time remaining in circulation [2]: at least 20 hours | Necropsy and CBC findings ([3]; 3 hours post injection of 15 mg/kg StcE I.V.): hemorrhages underneath the skull, ecchymoses throughout the gastrointestinal tract, neutrophil accumulation in the lungs, and platelet depletion | Maximum tolerated dose ([3]; Balb/c and C57BL/6 mice): 0.25 mg/kg | Toxicity above the maximum tolerated dose ([3]; doses higher than 0.25 mg/kg): systemic toxicity | Basophil absolute ([4]; StcE 0.15 mg/kg I.V.): 0 | Basophils ([4]; StcE 0.15 mg/kg I.V.): 0% | Eosinophil absolute ([4]; StcE 0.15 mg/kg I.V.): 44 | Eosinophils ([4]; StcE 0.15 mg/kg I.V.): 1% | Hematocrit (HCT) ([4]; StcE 0.15 mg/kg I.V.): 45.5% | Hemoglobin (HGB) ([4]; StcE 0.15 mg/kg I.V.): 14 gm/dL | Immature reticulocyte fraction (IRF) ([4]; StcE 0.15 mg/kg I.V.): 54.9% | Low fluorescence reticulocytes (LFR) ([4]; StcE 0.15 mg/kg I.V.): 45.1% | Lymphocyte absolute ([4]; StcE 0.15 mg/kg I.V.): 4085 | Lymphocytes ([4]; StcE 0.15 mg/kg I.V.): 92% | MHC concentration (MCHC) ([4]; StcE 0.15 mg/kg I.V.): 30.8 g/dL | Mean corpuscular hemoglobin (MCH) ([4]; StcE 0.15 mg/kg I.V.): 14.3 pg | Mean corpuscular volume (MCV) ([4]; StcE 0.15 mg/kg I.V.): 46.5 fL | Mean platelet volume (MPV) ([4]; StcE 0.15 mg/kg I.V.): 7.3 fL | Medium fluorescence reticulocytes (MFR) ([4]; StcE 0.15 mg/kg I.V.): 18.7% | Monocyte absolute ([4]; StcE 0.15 mg/kg I.V.): 133 | Monocytes ([4]; StcE 0.15 mg/kg I.V.): 3% | Neutrophil absolute ([4]; StcE 0.15 mg/kg I.V.): 178 | Neutrophils ([4]; StcE 0.15 mg/kg I.V.): 4% | Platelet count ([4]; StcE 0.15 mg/kg I.V.): 1345 K/μL | Platelet distribution width (PDW) ([4]; StcE 0.15 mg/kg I.V.): 8.9 fL | Platelet estimate ([4]; StcE 0.15 mg/kg I.V.): Adequate | Platelet-large cell ratio (P-LCR) ([4]; StcE 0.15 mg/kg I.V.): 8.7% | RBC morphology ([4]; StcE 0.15 mg/kg I.V.): Normal | Red blood cell (RBC) ([4]; StcE 0.15 mg/kg I.V.): 9.78 M/μL | Red cell distribution width (RDW) ([4]; StcE 0.15 mg/kg I.V.): 19.2% | Reticulocyte absolute ([4]; StcE 0.15 mg/kg I.V.): 442056 µL⁻¹ | Reticulocyte count ([4]; StcE 0.15 mg/kg I.V.): 4.52% | White blood cell (WBC) ([4]; StcE 0.15 mg/kg I.V.): 4.44 K/μL | Basophil absolute ([4]; StcE 15 mg/kg I.V.): 0 | Basophils ([4]; StcE 15 mg/kg I.V.): 0% | Eosinophil absolute ([4]; StcE 15 mg/kg I.V.): 39 | Eosinophils ([4]; StcE 15 mg/kg I.V.): 1% | Hematocrit (HCT) ([4]; StcE 15 mg/kg I.V.): 58.9% | Hemoglobin (HGB) ([4]; StcE 15 mg/kg I.V.): 18.3 gm/dL | Immature reticulocyte fraction (IRF) ([4]; StcE 15 mg/kg I.V.): 52.3% | Low fluorescence reticulocytes (LFR) ([4]; StcE 15 mg/kg I.V.): 47.7% | Lymphocyte absolute ([4]; StcE 15 mg/kg I.V.): 1458 | Lymphocytes ([4]; StcE 15 mg/kg I.V.): 37% | MHC concentration (MCHC) ([4]; StcE 15 mg/kg I.V.): 31.1 g/dL | Mean corpuscular hemoglobin (MCH) ([4]; StcE 15 mg/kg I.V.): 14 pg | Mean corpuscular volume (MCV) ([4]; StcE 15 mg/kg I.V.): 44.9 fL | Mean platelet volume (MPV) ([4]; StcE 15 mg/kg I.V.): 6.8 fL | Medium fluorescence reticulocytes (MFR) ([4]; StcE 15 mg/kg I.V.): 28% | Monocyte absolute ([4]; StcE 15 mg/kg I.V.): 315 | Monocytes ([4]; StcE 15 mg/kg I.V.): 8% | Neutrophil absolute ([4]; StcE 15 mg/kg I.V.): 2128 | Neutrophils ([4]; StcE 15 mg/kg I.V.): 54% | Platelet count ([4]; StcE 15 mg/kg I.V.): 82 K/μL | Platelet distribution width (PDW) ([4]; StcE 15 mg/kg I.V.): 7.2 fL | Platelet estimate ([4]; StcE 15 mg/kg I.V.): Decreased | Platelet-large cell ratio (P-LCR) ([4]; StcE 15 mg/kg I.V.): 5.5% | RBC morphology ([4]; StcE 15 mg/kg I.V.): Normal | Red blood cell (RBC) ([4]; StcE 15 mg/kg I.V.): 13.11 M/μL | Red cell distribution width (RDW) ([4]; StcE 15 mg/kg I.V.): 22.2% | Reticulocyte absolute ([4]; StcE 15 mg/kg I.V.): 860016 µL⁻¹ | Reticulocyte count ([4]; StcE 15 mg/kg I.V.): 6.56% | White blood cell (WBC) ([4]; StcE 15 mg/kg I.V.): 3.94 K/μL
